Data reported in US6780611B1, “Polynucleotide encoding neuromedin U receptor” (Pfizer Inc., priority 1999, dated 2004).
No end group written: not given here.

Target: T1, PFI-002 receptor (Homo sapiens, UniProt Q9GZQ4, S2A)
T1 construct: expressed in transfected cells; host or cells: HEK 293 (human embryonic kidney), transient transfection
Test: Functional screen of peptides by FLIPR (Fluo-3 fluorescence) in HEK 293 cells transiently transfected with PFI-002
Format: cell-based
Conditions: HEK 293 cells transiently transfected with PFI-002, Fluo-3 loaded; neuromedins 10 μM final, in triplicate; other peptides 5 μM final
Description: Transient Expression in Native HEK 293 Cells
Transfection: 7.5 μg of PFI-002 DNA was transiently transfected into native human embryonic kidney 293 (HEK 293) cells (75 cm^2 flask, 80% confluent) using the Lipofectamine Plus protocol (Life Technologies, Inc.) and following the manufacturer's instructions. 24 hrs after transfection, the cells were detached with trypsin and seeded into black walled 96 well plates at a density of 5×10^4 cells/well. The next day the cells were loaded with Fluo-3 in the presence of 3 mM probenicid (Molecular Devices; inhibits activity of the anion transport protein, thus improving dye loading) for 1.5 hours (loading dye/96 well plate: 50 μg Fluo-3 in 20 μl DMSO+20 μl 20% pluronic acid in DMSO+11 ml growth media+3 mM probenicid—added 100 μl loading dye/well). After washing (wash buffer PBS/3 mM probenicid/pH 7.4), the cells were exposed to 60 peptides (final concentration 5 μM each) arrayed in a 96 well plate. In addition, neuromedins B, C, N, U8 and U25 (final concentration 10 μM each) were screened in triplicate. Fluorescence was measured by a Fluorometric Imaging Plate Reader (FLIPR, Molecular Devices) according to the manufacturer's protocol.

T1 sequence (Q9GZQ4 whole entry S2A): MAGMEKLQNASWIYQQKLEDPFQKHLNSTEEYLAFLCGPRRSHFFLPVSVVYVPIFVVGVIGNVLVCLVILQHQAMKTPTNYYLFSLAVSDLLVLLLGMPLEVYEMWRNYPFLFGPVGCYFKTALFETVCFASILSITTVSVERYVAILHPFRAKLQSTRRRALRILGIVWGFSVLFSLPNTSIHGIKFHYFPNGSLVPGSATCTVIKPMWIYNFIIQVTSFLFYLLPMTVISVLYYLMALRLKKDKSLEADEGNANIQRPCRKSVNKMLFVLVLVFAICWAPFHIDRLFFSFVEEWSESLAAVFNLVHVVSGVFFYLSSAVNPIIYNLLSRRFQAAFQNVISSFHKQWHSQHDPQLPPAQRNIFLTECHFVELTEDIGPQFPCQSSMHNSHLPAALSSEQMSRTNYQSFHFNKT

functional response of PFI-002 receptor (fluorescence measured by FLIPR, FIG. 2): specific functional response
Substance: neuromedin U: Peptide ligand of the PFI-002 receptor; screened as Neuromedin U8 and Neuromedin U25 (wells F10-G3) (FRVDEEFQSPFASQSRGYFLFRPRN; ends and bridges not checked; UniProt P48645 142-166, looked up)
